Data from patent publication US20220153824A1 (University of Pennsylvania, published 2022).

Legend:
human C5a = target: T1, human C5a (human, UniProt P01031 678-751); assay: ELISA, plate coated with human C5a
T1 construct: domain: C5a; Purified human C5a (Hycult) in ELISA; recombinant human C5a in the Transwell assay; also called free human C5a; recombinant human complement C5a
T1 sequence (looked up): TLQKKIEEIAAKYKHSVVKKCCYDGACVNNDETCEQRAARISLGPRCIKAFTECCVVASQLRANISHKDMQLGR
Experimental: Polystyrene microtiter plates were coated with purified human C5 or C5a (50 ng/well, Hycult) in PBS at 37° C. for 1 hr. After aspirating the C5 or C5a solution, wells were blocked with PBS containing 1% BSA in PBS at room temperature for 1 hour. Wells without C5 or C5a coating served as background controls. Different concentration of 7A12 mAb or control anti-C5 mAb or chimeric 7A12, 50 μl/well in blocking solution, were added to the wells. Following 1 hour incubation at room temperature, the wells were extensively washed with PBST. Human C5 or C5a-bound mAb was detected by the addition of anti-mouse IgG HRP 1:4000 dilution in blocking solution, which was allowed to incubate for 1 hour at RT. After washing with PBST, the plate was developed with HRP substrate for 6-10 min. The reaction was stopped with 2N H2SO4 and plate was read at 450 nm in a micro plate reader.
(§1) An ELISA plate was coated with human C5a or mouse C5a. After incubation with serially diluted 7A12 or the control anti-C5 mAb, bound mAb was detected by HRP-conjugated anti-mouse IgG. […] Since mAb 7A12 reacts with the whole C5 protein (as shown in FIG. 1), it can be concluded that mAb 7A12 binds both the C5a moiety of native human C5 and free human C5a. On the other hand, no binding of the control anti-C5 mAb to human C5a was seen, as depicted in FIG. 3B.

mouse C5a = target: T2, mouse C5a (mouse, UniProt P06684 679-755); assay: ELISA, plate coated with mouse C5a
T2 construct: domain: C5a; also called purified mouse C5a
T2 sequence (looked up): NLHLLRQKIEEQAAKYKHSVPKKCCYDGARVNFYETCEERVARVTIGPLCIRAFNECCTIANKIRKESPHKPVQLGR
Experimental: as §1

B1: monoclonal anti-C5a antibody designated mAb 7A12 (antibody, V domains shown)
VH: QVQLQQSDAELVKPGASVKISCKVSGYTFTDHIIHWMNQRPEQGLEWIGYIYPRDGNTNYNENFKGKATLTADKSSSTAYMQLNSLTSEDSAVYFCARERNLEYFDYWGQGTTLTVSS
VL: DIVLTQSPASLAVSLGQRATISCKASQSVDYDGDNYMNWYQQKPGQPPKLLIYAASNLDSGIPARFSGSGSGTDFTLNIHPVEEEDAATYYCQQSNEDPYTFGGGTKLEIKR
notes: also called 7A12 mAb
B1: binds (human C5a); no binding (mouse C5a).
